Results reported in US20210317213A1 (AMBRX, published 2021).

Columns and labels:
human CD3 [1] = target: T1, human CD3 (human, UniProt P07766 23-207); assay: summary table; cell binding EC50, human PBMC
T1 construct: whole, on cells; also called CD3 on human T-cells

[2] = target: Folate receptor-alpha (FOLR1) (human) (UniProt P15328); assay: summary table; cell binding through the folate moiety
human CD3 [3] = target: T1, human CD3; assay: cell binding, human PBMC
[4] = target: Folate receptor-alpha (FOLR1) (human) (UniProt P15328); assay: cell binding, FOLRα-expressing KB cells; through the folate moiety
[5] = target: Folate receptor-alpha (FOLR1) (human) (UniProt P15328); assay: summary table; FRα affinity over CD3 affinity
cyno CD3 [6] = target: T2, cyno CD3 (cyno (cynomolgus monkey), UniProt Q95LI5 22-198); assay: cell binding, activated cyno PBMC; E. coli protein
T2 construct: whole, on cells; also called CD3 on Cynomolgus T-cells

cyno CD3 [7] = target: T2, cyno CD3; assay: cell binding, cynomolgus T-cells
human CD3 [8] = target: T1, human CD3; assay: cell binding, human CD3 (activated human PBMC); human CD3 (first number of the cell)
Experimental: (§1) Testing for CD3 binding with activated human and cyno PBMC: To distinguish between the humanized anti-CD3 antibodies generated, binding to human CD3 was tested using activated human PBMCs (n=2). The activation of PBMCs and subsequent fluorescence-based CD3 binding assays were followed as described previously (see for example, Angew Chem Int Ed Engl, 52(46):12101-12104, 2013). […] The binding of the remaining 6 humanized antibodies to both human and cyno CD3 using activated human and cyno PBMCs, respectively, was titrated. […] The six (6) humanized anti-CD3 antibodies were obtained as follows: Fab1, Fab2 and Fab3 wildtype were generated by combination of LC ((vL1.2+CL); (SEQ.ID. NO:7)) and HC ((vH1.2+CH1); (SEQ.ID. NO:1)), ((vH1.1+CH1); (SEQ.ID. NO:2)) and ((vH1.0+CH1); (SEQ.ID. NO:3)) respectively. Fab4, Fab 5 and Fab6 wildtype were generated by combination of LC ((vL1.1+CL); (SEQ.ID. NO:8)) and HC ((vH1.2+CH1); (SEQ.ID. NO:1)), ((vH1.1+CH1); (SEQ.ID. NO:2)) and ((vH1.0+CH1); (SEQ.ID. NO:3)) respectively.
(§2) Binding of Folate-conjugated Fabs to human and cyno CD3: Binding of E. coli produced and Folate-conjugated low-affinity variants of humanized anti-CD3 Fabs was performed as described in the above Examples.

human CD3 [9] = target: T1, human CD3; assay: cell binding, activated human PBMC
human CD3 [10] = target: T1, human CD3; assay: cell binding, human CD3, 50 nM SFA present
cyno CD3 [11] = target: T2, cyno CD3; assay: cell binding, cyno CD3 (activated cyno PBMC); cyno CD3 (second number of the cell)
Experimental: as §1, §2

cyno CD3 [12] = target: T2, cyno CD3; assay: cell binding, activated cyno PBMC
human CD3 [13] = target: T1, human CD3; assay: cell binding, activated human PBMC; E. coli protein
human CD3 [14] = target: T1, human CD3; assay: cell binding, human T-cells; parameters: Bmax: unit not given here
[15] = target: Folate receptor-alpha (FOLR1) (human) (UniProt P15328); assay: cell binding, SKOV-3 cells with 50 nM SFA; through the folate moiety; SKOV-3 cells, with 50 nM SFA; binding through the conjugated folate
human CD3 [16] = target: T1, human CD3; assay: cell binding, human PBMC, 20 nM SFA present
human CD3 [17] = target: T1, human CD3; assay: cell binding, human T-cells; assigned to the Bi5KPEG-BiFolate / BiFolate pair from Table 37
cyno CD3 [18] = target: T2, cyno CD3; assay: flow cytometry (MFI) titration on cyno CD3 (activated cyno PBMC), HEK293 culture supernatant
Experimental: (§3) Screening for human and cyno CD3 binding: HEK293 culture supernatants were directly used to test for binding to human CD3 in the screening phase. In Round 1 experiment, initially 35 clones were tested for binding to human CD3 at three different protein concentrations, and 13 were selected for detailed binding assays to both human and cyno CD3. An 11-point binding titration curve was generated to both human (FIG. 4A) and cyno CD3 (FIG. 4B) for each clone. […] Similarly, 43 clones were screened in Round 2 experiment. After two-stage screening as described above for Round 1, 11 low-affinity variants were obtained, of which 4 are represented as shown in FIGS. 5A-5B

human CD3 [19] = target: T1, human CD3; assay: flow cytometry (MFI) titration on human CD3 (activated human PBMC), HEK293 culture supernatant
Experimental: as §3

cyno CD3 [20] = target: T2, cyno CD3; assay: flow cytometry (MFI), 11-point titration on cyno CD3 (activated cyno PBMC), HEK293 culture supernatant
Experimental: as §3

human CD3 [21] = target: T1, human CD3; assay: flow cytometry (MFI), 11-point titration on human CD3 (activated human PBMC), HEK293 culture supernatant
Experimental: as §3

T2 sequence (Q95LI5 22-198): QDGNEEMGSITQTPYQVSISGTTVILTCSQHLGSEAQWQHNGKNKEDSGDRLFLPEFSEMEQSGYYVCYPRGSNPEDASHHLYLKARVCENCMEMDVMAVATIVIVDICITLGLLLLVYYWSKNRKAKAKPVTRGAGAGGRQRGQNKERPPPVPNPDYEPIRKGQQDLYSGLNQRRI
T1 sequence (P07766 23-207): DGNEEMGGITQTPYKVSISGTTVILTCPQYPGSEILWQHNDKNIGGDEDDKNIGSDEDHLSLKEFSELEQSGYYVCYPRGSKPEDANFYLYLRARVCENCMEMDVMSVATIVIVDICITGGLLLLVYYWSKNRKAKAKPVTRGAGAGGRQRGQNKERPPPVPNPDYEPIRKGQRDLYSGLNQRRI
Chain of Folate receptor-alpha (FOLR1) (human) (P15328 25-234): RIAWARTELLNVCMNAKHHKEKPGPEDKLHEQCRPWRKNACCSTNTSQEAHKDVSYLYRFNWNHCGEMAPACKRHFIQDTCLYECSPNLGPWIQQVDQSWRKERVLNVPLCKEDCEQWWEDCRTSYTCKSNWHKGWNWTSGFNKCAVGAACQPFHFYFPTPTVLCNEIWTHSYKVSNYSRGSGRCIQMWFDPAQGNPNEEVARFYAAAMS

Binder | Bmax [4] | Kd [4] [nM] | EC50 (cyno CD3 [6]) [nM] | Bmax (cyno CD3 [7]) | Kd (cyno CD3 [7]) [nM] | EC50 (human CD3 [10]) [nM] | EC50 (human CD3 [13]) [nM] | Bmax (human CD3 [14]) | Kd (human CD3 [14]) [nM] | EC50 (read off the curve) (cyno CD3 [18]) [nM] | EC50 (read off the curve) (human CD3 [19]) [nM] | further results
Fab1-HK129-Folate (Fab, V domains shown, pAF at HK129 (Kabat) conjugated to folate (oxime), From E. coli; also called Folate lead; parent control) VH: EVQLVESGGGLVQPGGSLRLSCAASGFTFNTYAMNWVRQAPGKGLEWVARIRSKYNNYATYYADSVKDRFTISRDDSKNILYLQMNSLKTEDTAVYYCVRHGNFGNSYVSWFAYWGQGTLVTVSS VL: QAVVTQEPSLTVSPGGTVTLTCRSSTGAVTTSNYANWVQQKPGQAPRGLIGGTNKRAPGTPARFSGSLLGGKAALTLSGAQPEDEAEYYCALWYSNLWVFGGGTKLTVLG | 101000 | 1.97 | 2.05 | 25700 | 2.69 | 2 | 1.69 | 30100 | 1.53 |  |  | CD3 binding affinity (human CD3 [1]): 1.69 nM; FRα binding affinity [2]: 59.6 nM; EC50 (human CD3 [3]): 2.45 nM; Affinity ratio (FRα:CD3) [5]: 35; EC50 (human CD3 [8]): 2.31 nM; EC50 (human CD3 [9]): 2.78 nM; EC50 (cyno CD3 [11]): 3.3 nM; EC50 (cyno CD3 [12]): 1.41 nM; EC50 [15]: 44.5 nM
Fab1-HK129-LL157-BiFolate-Bi5KPEG (Fab, V domains shown, pAF at LL157 (Kabat) conjugated to a bifunctional linker carrying folate and 5K PEG (oxime); pAF at HK129 (Kabat) conjugated to a bifunctional linker carrying folate and 5K PEG (oxime), From E. coli; carries two folates and two 5K PEG; also called Fab1-HK129-LL157-Bi5KPEG-BiFolate) VH: EVQLVESGGGLVQPGGSLRLSCAASGFTFNTYAMNWVRQAPGKGLEWVARIRSKYNNYATYYADSVKDRFTISRDDSKNILYLQMNSLKTEDTAVYYCVRHGNFGNSYVSWFAYWGQGTLVTVSS VL: QAVVTQEPSLTVSPGGTVTLTCRSSTGAVTTSNYANWVQQKPGQAPRGLIGGTNKRAPGTPARFSGSLLGGKAALTLSGAQPEDEAEYYCALWYSNLWVFGGGTKLTVLG | 83100 | 2.28 |  | 13200 | 5.01 | 7.5 |  | 15300 | 3.34 |  |  | EC50 (human CD3 [16]): 5.7 nM; fold lower binding affinity (vs the non-pegylated version) (human CD3 [17]): ~5 fold
Fab1 wildtype (vH1.2+CH1 / vL1.2+CL), humanized anti-CD3 SP34 (Fab, V domains shown, also called Fab1-WT; vH1.2+vL1.2) VH: EVQLVESGGGLVQPGGSLRLSCAASGFTFNTYAMNWVRQAPGKGLEWVARIRSKYNNYATYYADSVKDRFTISRDDSKNILYLQMNSLKTEDTAVYYCVRHGNFGNSYVSWFAYWGQGTLVTVSS VL: QAVVTQEPSLTVSPGGTVTLTCRSSTGAVTTSNYANWVQQKPGQAPRGLIGGTNKRAPGTPARFSGSLLGGKAALTLSGAQPEDEAEYYCALWYSNLWVFGGGTKLTVLG |  |  | 0.75 |  |  |  | 0.93 |  |  | ~2 | ~0.8 | EC50 (read off the curve) (cyno CD3 [20]): ~0.6 nM; EC50 (read off the curve) (human CD3 [21]): ~0.7 nM
Fab14 (Fab, V domains shown, distinct from m37 (Fab14-HK129-Folate); also called Fab14 (vH2.5 / vL2.1), wild type from HEK293) VH: EVQLVESGGGLVQPGGSLRLSCAASGFTFNTYAMNWVRQAPGKGLEWVGRIRSKYNNYATYYADSVKDRFTISRDDSKNSLYLQMNSLKTEDTAVYYCARHGNFGNSYVSWFAYWGQGTLVTVSS VL: QAVVTQEPSLTVSPGGTVTLTCRSSTGAVTTSNYANWFQQKPGQAPRGLIGGTNKRAPGVPARFSGSLLGGKAALTLSGAQPEDEAEYYCALWYSNLWVFGGGTKLTVLG |  |  |  |  |  |  |  |  |  | ~10 | ~5 | 
